{"source": "paper PMC4893024", "origin": "cited, not measured here", "molecular_target": "Cys39 (UniProt position 39, TSPYECGFDPM)", "test": "not stated (the cited study [29] is described as SH-reagent sensitivity/labelling of bovine heart SMP with N-ethylmaleimide and N-fluorescein maleimide)", "conditions": "Deactive (D) form of complex I, with Cys-39 exposed", "data": [{"substance": "NADH-ubiquinone oxidoreductase chain 3 (ND3 subunit of mitochondrial complex I) (Bos taurus)", "values": [{"measurement": "pKa", "result": 10.2}]}]}
